From patent US20130158098A1, “Alkenyl Substituted Cycloaliphatic Compounds as Chemical Inducers of Proximity” (priority 2010, published 2013)

Biological target: VP16-PYLcs (VP16 transactivation domain fused to PYL1 aa 33-209) (herpes simplex virus; Arabidopsis thaliana) (UniProt Q8VZS8)
Assay: cell-based or functional assay

VP16-PYLcs (VP16 transactivation domain fused to PYL1 aa 33-209) (herpes simplex virus; Arabidopsis thaliana), sequence (Q8VZS8 33-209 limits assumed): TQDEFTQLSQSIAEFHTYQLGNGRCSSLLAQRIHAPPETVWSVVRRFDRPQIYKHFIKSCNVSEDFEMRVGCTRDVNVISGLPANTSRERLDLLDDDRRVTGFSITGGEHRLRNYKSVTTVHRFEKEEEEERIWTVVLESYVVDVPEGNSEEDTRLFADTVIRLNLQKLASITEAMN

Gal4 DBD-ABIcs, wild type (Gal4 DNA binding domain fused to ABI1 aa 126-423) (from UniProt P04386 1-147)
luciferase production (UAS-luciferase reporter, murine ES, NIH 3T3 and HEK 293T cells): 1000 fold
